Test results published in US12559863B2, “Macrocyclic modulators of disease associated protein misfolding and aggregation” (RESQ BIOTECH, priority 2017, dated 2026).

Biological target: T1, Aβ42-GFP (Homo sapiens, UniProt P05067)
T1 construct: a chimeric fusion of the human Aβ(1-42) peptide (Aβ42) with GFP; expressed in transfected cells; host or cells: E. coli BL21(DE3)
Test: High-throughput sequencing of pSICLOPPS vectors isolated after bacterial sorting for enhanced Aβ42-GFP fluorescence
Details: for Reads/Total TXXXR reads (%): relative to total TXXXR reads; for Reads/Total pentapeptide reads (%): relative to total pentapeptide reads
In short: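 Peptide inserts recovered from repeatedly sorted high-GFP clones were sequenced on Ion Torrent, excluding stop-codon-containing reads. Sorting used BL21(DE3) cells carrying pETAβ42-GFP plus the tetra-, penta- and hexapeptide pSICLOPPS library. Peptide production was induced with 0.002% L-arabinose and the reporter with 0.1 mM IPTG at OD600 ~0.5, at 37° C.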

[1] = after the second round of bacterial sorting for enhanced Aβ42-GFP fluorescence
[2] = after the second round of bacterial sorting for enhanced Aβ42-GFP fluorescence, relative to total peptide reads
[3] = pSICLOPPS-NuX1X2X3-X5 vectors after the second round of bacterial sorting for enhanced Aβ42-GFP fluorescence
[4] = Table 4, hexapeptides, after second round of sorting

Substance	Reads/Total TXXXR reads (%) [1] [%]	Reads/Total pentapeptide reads (%) [1] [%]	Reads/Total peptide reads (%) [2] [%]	Number of reads [3]	Reads/Total hexapeptide reads (%) (Table 4)	Reads/Total peptide reads (%) (Table 4)	Number of reads [4]
AβC5-394 (TTVSR; head-to-tail cyclic)	0.005	0.002	0.002	86	–	–	–
AβC5-395 (TTQHR; head-to-tail cyclic)	0.004	0.002	0.002	85	–	–	–
AβC5-396 (TTTPR; head-to-tail cyclic)	0.004	0.002	0.002	84	–	–	–
AβC5-399 (TAFAR; head-to-tail cyclic)	0.004	0.002	0.002	82	–	–	–
AβC5-405 (TTSHR; head-to-tail cyclic)	0.004	0.002	0.002	78	–	–	–
AβC5-410 (TVLGR; cyclic pentapeptide)	0.004	0.002	0.002	76	–	–	–
AβC5-411 (TTQRR; cyclic pentapeptide)	0.004	0.002	0.002	75	–	–	–
AβC5-413 (TSHAR; cyclic pentapeptide)	0.004	0.002	0.002	74	–	–	–
AβC5-415 (TTTCR; cyclic pentapeptide)	0.004	0.002	0.002	74	–	–	–
AβC5-422 (TAWRR; cyclic pentapeptide)	0.004	0.002	0.002	72	–	–	–
AβC5-428 (TTCGR; cyclic pentapeptide)	0.004	0.002	0.002	69	–	–	–
AβC5-434 (TTSGR; cyclic pentapeptide)	0.003	0.002	0.001	65	–	–	–
AβC5-438 (TTTSR; cyclic pentapeptide)	0.003	0.002	0.001	62	–	–	–
AβC5-440 (TATGR; cyclic pentapeptide)	0.003	0.002	0.001	61	–	–	–
AβC5-441 (TAWDR; cyclic pentapeptide)	0.003	0.002	0.001	61	–	–	–
AβC5-443 (TTHHR; cyclic pentapeptide)	0.003	0.001	0.001	60	–	–	–
AβC5-448 (TAYAR; cyclic pentapeptide)	0.003	0.001	0.001	58	–	–	–
AβC5-449 (TANAR; cyclic pentapeptide)	0.003	0.001	0.001	58	–	–	–
AβC5-450 (TRDVR; cyclic pentapeptide)	0.003	0.001	0.001	58	–	–	–
AβC5-452 (THVDR; cyclic pentapeptide)	0.003	0.001	0.001	58	–	–	–
AβC5-453 (TLFWR; cyclic pentapeptide)	0.003	0.001	0.001	57	–	–	–
AβC5-459 (TTAAR; cyclic pentapeptide)	0.003	0.001	0.001	55	–	–	–
AβC5-463 (TVVDR; cyclic pentapeptide)	0.003	0.001	0.001	54	–	–	–
AβC5-464 (TTPAR; cyclic pentapeptide)	0.003	0.001	0.001	54	–	–	–
AβC5-469 (TTIGR; cyclic pentapeptide)	0.003	0.001	0.001	53	–	–	–
AβC5-472 (TMYAR; cyclic pentapeptide)	0.003	0.001	0.001	51	–	–	–
AβC5-473 (THVAR; cyclic pentapeptide)	0.003	0.001	0.001	51	–	–	–

Substance	Reads/Total TXXXR reads (%) [1] [%]	Reads/Total pentapeptide reads (%) [1] [%]	Reads/Total peptide reads (%) [2] [%]	Number of reads [3]	Reads/Total hexapeptide reads (%) (Table 4)	Reads/Total peptide reads (%) (Table 4)	Number of reads [4]
AβC5-474 (TTWPR; cyclic pentapeptide)	0.003	0.001	0.001	51	–	–	–
AβC5-475 (TTGDR; cyclic pentapeptide)	0.003	0.001	0.001	51	–	–	–
AβC5-479 (TTTVR; cyclic pentapeptide)	0.003	0.001	0.001	50	–	–	–
AβC5-481 (TVFGR; cyclic pentapeptide)	0.003	0.001	0.001	50	–	–	–
AβC5-483 (TRVGR; cyclic pentapeptide)	0.003	0.001	0.001	50	–	–	–
TCSWFD [AβC6-27]	–	–	–	–	0.138	0.014	623
TIFWFD [AβC6-50]	–	–	–	–	0.050	0.005	227
TKEYFD [AβC6-21]	–	–	–	–	0.272	0.027	1,231
TLCWLN [AβC6-32]	–	–	–	–	0.101	0.010	455
TLDFFD [AβC6-63]	–	–	–	–	0.025	0.003	114
TLEFFD [AβC6-4]	–	–	–	–	5.978	0.597	27,057
TLEYFM [AβC6-28]	–	–	–	–	0.123	0.012	556
TLEYLW [AβC6-49]	–	–	–	–	0.051	0.005	233
TLGWLD [AβC6-42]	–	–	–	–	0.068	0.007	307
TLHWFE [AβC6-26]	–	–	–	–	0.143	0.014	647
TLKWLN [AβC6-10]	–	–	–	–	2.434	0.243	11,016
TLLIRW [AβC6-8]	–	–	–	–	2.902	0.290	13,135
TLSVFD [AβC6-57]	–	–	–	–	0.039	0.004	176
TLSWFN [AβC6-59]	–	–	–	–	0.031	0.003	141
TLSWYD [AβC6-47]	–	–	–	–	0.053	0.005	239
TLWVFD [AβC6-37]	–	–	–	–	0.078	0.008	355
TPALFD [AβC6-68]	–	–	–	–	0.022	0.002	101
TPALVD [AβC6-53]	–	–	–	–	0.046	0.005	208
TPARFD [AβC6-78]	–	–	–	–	0.012	0.001	55
TPAWFD [AβC6-2]	–	–	–	–	24.555	2.453	111,132
TPAWLD [AβC6-79]	–	–	–	–	0.012	0.001	55
TPAWSD [AβC6-69]	–	–	–	–	0.019	0.002	86
